The RNAGym collection of RNA variant scans (doi:10.1073/pnas.2313332121)

B1: TPR t1 (parent)
chain: GACCAAUCUGCCCUCAGAGCUCGAGAACAUCUUCGGAUGCAGAGGAGGCAGGCUUCGGUGGCGCGAUAGCGCCAACGUCCUCAACCUCCAAUGCAUCCCACCACAUGAUGAUGCCUGAAGAGCCUUGGUUUUUUG

Variants of: B1
Test: polymerase ribozyme fitness, log enrichment relative to wild type (log ratio); higher = more active; in vitro selection for triplet polymerase activity
Procedure, shortened: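 After PCR construction and transcription, each subunit's mutant library from a heterodimeric triplet polymerase ribozyme was annealed with a biotinylated primer, the partner subunit and triplets. Incubation was frozen, at −7 °C, and extended constructs were gel-excised, bound to streptavidin beads and amplified by RT-PCR, in one selection round done in triplicate. Fitness is the logarithm of a genotype's enrichment divided by that of the wild type, from inverse-variance-weighted replicate averages of Illumina-sequenced inputs and outputs. The base of the logarithm is 2, and genotypes needed ≥10 input reads and ≥1 read per output.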

**Q.** Which “polymerase ribozyme fitness (log ratio)” value does the source give for C40G C104U G113C G122A here?
**A.** -3.43

**Q.** For C40A C88A G117A, which “polymerase ribozyme fitness (log ratio)” value is on record?
**A.** -3.85

**Q.** With C40A A41C C49A C70U U92A C102G U109A as the variant, how does the “polymerase ribozyme fitness (log ratio)” value read?
**A.** -6.25

**Q.** Which “polymerase ribozyme fitness (log ratio)” value does the source give for G39U C86G C104A here?
**A.** -4.01

**Q.** Which “polymerase ribozyme fitness (log ratio)” value does the source give for C40G G60U here?
**A.** -0.737

**Q.** Which “polymerase ribozyme fitness (log ratio)” value does the source give for C40G G110U here?
**A.** -1.7

**Q.** Which “polymerase ribozyme fitness (log ratio)” value does the source give for G39U G110C A121C here?
**A.** -4.8

**Q.** With G39U C49U C97A C124A G127A as the variant, how does the “polymerase ribozyme fitness (log ratio)” value read?
**A.** -5.83

**Q.** For G39C C115U G120C, which “polymerase ribozyme fitness (log ratio)” value is on record?
**A.** -1.04

**Q.** With C40G G61A C72U U112C as the variant, how does the “polymerase ribozyme fitness (log ratio)” value read?
**A.** 1.6

**Q.** With C40U G52U C88A as the variant, how does the “polymerase ribozyme fitness (log ratio)” value read?
**A.** -1.07

**Q.** Which “polymerase ribozyme fitness (log ratio)” value does the source give for C40G G44C C73U U125G here?
**A.** -2.93

**Q.** With C40U A100G as the variant, how does the “polymerase ribozyme fitness (log ratio)” value read?
**A.** -4.16

**Q.** For C40U C73U A75C, which “polymerase ribozyme fitness (log ratio)” value is on record?
**A.** -0.514

**Q.** With C40A G47A as the variant, how does the “polymerase ribozyme fitness (log ratio)” value read?
**A.** -3.03

**Q.** For A41C C70G U78C, which “polymerase ribozyme fitness (log ratio)” value is on record?
**A.** -5.64

**Q.** Which “polymerase ribozyme fitness (log ratio)” value does the source give for G39A G71C here?
**A.** -2.63

**Q.** Which “polymerase ribozyme fitness (log ratio)” value does the source give for C40A C64U here?
**A.** -2.19

**Q.** With C40A G48A C86A as the variant, how does the “polymerase ribozyme fitness (log ratio)” value read?
**A.** -2.18

**Q.** With C40U G113U as the variant, how does the “polymerase ribozyme fitness (log ratio)” value read?
**A.** -2.53

**Q.** With C40A A74G U130C as the variant, how does the “polymerase ribozyme fitness (log ratio)” value read?
**A.** -0.804

**Q.** With G39A C62G as the variant, how does the “polymerase ribozyme fitness (log ratio)” value read?
**A.** -2.59

**Q.** With G39A C62U as the variant, how does the “polymerase ribozyme fitness (log ratio)” value read?
**A.** -0.84

**Q.** With A41C A46C C72G C97U U133A as the variant, how does the “polymerase ribozyme fitness (log ratio)” value read?
**A.** -3.71

**Q.** Which “polymerase ribozyme fitness (log ratio)” value does the source give for U38G U116C here?
**A.** -2.06

**Q.** With C40U G52U U96G A105U G120A G128C U131G as the variant, how does the “polymerase ribozyme fitness (log ratio)” value read?
**A.** -6.51

**Q.** With C40G C94G A121U as the variant, how does the “polymerase ribozyme fitness (log ratio)” value read?
**A.** -0.125

**Q.** With U38G G61U U116C as the variant, how does the “polymerase ribozyme fitness (log ratio)” value read?
**A.** -1.78

**Q.** For C40U C97U U106A C115A, which “polymerase ribozyme fitness (log ratio)” value is on record?
**A.** -1.86

**Q.** Which “polymerase ribozyme fitness (log ratio)” value does the source give for C40U A41C C56A C114A here?
**A.** -2.89

**Q.** With G39A A66C C86G as the variant, how does the “polymerase ribozyme fitness (log ratio)” value read?
**A.** -2.29

**Q.** For C40A G61U G93U A100C, which “polymerase ribozyme fitness (log ratio)” value is on record?
**A.** -1.18

**Q.** For C40A A105G, which “polymerase ribozyme fitness (log ratio)” value is on record?
**A.** -4.43

**Q.** For C40A G48U, which “polymerase ribozyme fitness (log ratio)” value is on record?
**A.** -1.61

**Q.** Which “polymerase ribozyme fitness (log ratio)” value does the source give for C40G G52A C62U G128C here?
**A.** -3.34

**Q.** For A41C C70A A118U, which “polymerase ribozyme fitness (log ratio)” value is on record?
**A.** -2.8

**Q.** With A41C G113C as the variant, how does the “polymerase ribozyme fitness (log ratio)” value read?
**A.** -2.86

**Q.** With C40U C53A G113C as the variant, how does the “polymerase ribozyme fitness (log ratio)” value read?
**A.** -2.73

**Q.** For G39U C94U G113C A118C, which “polymerase ribozyme fitness (log ratio)” value is on record?
**A.** -3.27

**Q.** With A41C G63C G77U A91G U96G A108G U112G as the variant, how does the “polymerase ribozyme fitness (log ratio)” value read?
**A.** -6.24

**Q.** Which “polymerase ribozyme fitness (log ratio)” value does the source give for C40U U87A here?
**A.** -0.311

**Q.** For G39U A68G C70U A121U, which “polymerase ribozyme fitness (log ratio)” value is on record?
**A.** -2.23

**Q.** For G39U C88U A121G, which “polymerase ribozyme fitness (log ratio)” value is on record?
**A.** 0.804

**Q.** With C40G C72U C102U U116G C124U as the variant, how does the “polymerase ribozyme fitness (log ratio)” value read?
**A.** -4.29

**Q.** Which “polymerase ribozyme fitness (log ratio)” value does the source give for A41G here?
**A.** -0.0621

**Q.** With A41C as the variant, how does the “polymerase ribozyme fitness (log ratio)” value read?
**A.** -0.956

**Q.** Which “polymerase ribozyme fitness (log ratio)” value does the source give for C40U C72A here?
**A.** -0.504

**Q.** With C40U C72U as the variant, how does the “polymerase ribozyme fitness (log ratio)” value read?
**A.** -1.69

**Q.** With A41C G61U G93C as the variant, how does the “polymerase ribozyme fitness (log ratio)” value read?
**A.** -1.3

**Q.** For C40U A74C G120A U131C, which “polymerase ribozyme fitness (log ratio)” value is on record?
**A.** 0.155

**Q.** With G39U G128C as the variant, how does the “polymerase ribozyme fitness (log ratio)” value read?
**A.** -3.25

**Q.** With G39C U78A as the variant, how does the “polymerase ribozyme fitness (log ratio)” value read?
**A.** -0.87

**Q.** Which “polymerase ribozyme fitness (log ratio)” value does the source give for G39A C88A here?
**A.** -1.32

**Q.** Which “polymerase ribozyme fitness (log ratio)” value does the source give for C40G U92G here?
**A.** -2.95

**Q.** With C40G U92C as the variant, how does the “polymerase ribozyme fitness (log ratio)” value read?
**A.** -1.63

**Q.** For C40A G60A G110C, which “polymerase ribozyme fitness (log ratio)” value is on record?
**A.** -6.85

**Q.** With C40G C114A as the variant, how does the “polymerase ribozyme fitness (log ratio)” value read?
**A.** -2.35

**Q.** Which “polymerase ribozyme fitness (log ratio)” value does the source give for C40U A41C G48U C56U G58C here?
**A.** -1.43

**Q.** With G39A C124U as the variant, how does the “polymerase ribozyme fitness (log ratio)” value read?
**A.** 1.26

**Q.** Which “polymerase ribozyme fitness (log ratio)” value does the source give for C40G C49U A74U U78A here?
**A.** -3.07

**Q.** For C40U G113A C114G, which “polymerase ribozyme fitness (log ratio)” value is on record?
**A.** -2.13

**Q.** With C40G G127C as the variant, how does the “polymerase ribozyme fitness (log ratio)” value read?
**A.** -1.55

**Q.** Which “polymerase ribozyme fitness (log ratio)” value does the source give for C40G G71U C79A here?
**A.** -2.32

**Q.** For G39C C56G A111C G128A, which “polymerase ribozyme fitness (log ratio)” value is on record?
**A.** -3.6

**Q.** Which “polymerase ribozyme fitness (log ratio)” value does the source give for G39A C73A G93U here?
**A.** -2.29

**Q.** Which “polymerase ribozyme fitness (log ratio)” value does the source give for G39U G63A here?
**A.** -1.75

**Q.** For A41C G44C, which “polymerase ribozyme fitness (log ratio)” value is on record?
**A.** -1.48

**Q.** With G39C C72U as the variant, how does the “polymerase ribozyme fitness (log ratio)” value read?
**A.** -1.18

**Q.** Which “polymerase ribozyme fitness (log ratio)” value does the source give for C40U U78G C85G here?
**A.** -2.08

**Q.** For C40A C72G U78C A121G U132A, which “polymerase ribozyme fitness (log ratio)” value is on record?
**A.** 0.388

**Q.** With C40U C88A as the variant, how does the “polymerase ribozyme fitness (log ratio)” value read?
**A.** -0.911

**Q.** With A41C C88U U92C C104U A111C U125G U132C as the variant, how does the “polymerase ribozyme fitness (log ratio)” value read?
**A.** -4.35

**Q.** Which “polymerase ribozyme fitness (log ratio)” value does the source give for C40A U78A C79U U109A here?
**A.** -6.14

**Q.** For G39U C62U G117U, which “polymerase ribozyme fitness (log ratio)” value is on record?
**A.** -3.18

**Q.** Which “polymerase ribozyme fitness (log ratio)” value does the source give for G39U G77U C89U here?
**A.** -1.38

**Q.** Which “polymerase ribozyme fitness (log ratio)” value does the source give for A41C G63U G77C A100U here?
**A.** -4.24

**Q.** For G39A G135C, which “polymerase ribozyme fitness (log ratio)” value is on record?
**A.** -0.0346

**Q.** With C40A G48A U55A G60A A95G G120C as the variant, how does the “polymerase ribozyme fitness (log ratio)” value read?
**A.** -1.53

**Q.** With G39A G48U G71U U116A U129A as the variant, how does the “polymerase ribozyme fitness (log ratio)” value read?
**A.** -5.41

**Q.** For A41C G63C A105G, which “polymerase ribozyme fitness (log ratio)” value is on record?
**A.** -5.05

**Q.** For G39A A46U U78A U126C, which “polymerase ribozyme fitness (log ratio)” value is on record?
**A.** -3.53

**Q.** For C40A G47A G63U, which “polymerase ribozyme fitness (log ratio)” value is on record?
**A.** -4.41

**Q.** For G39U A50U, which “polymerase ribozyme fitness (log ratio)” value is on record?
**A.** -1.79

**Q.** For G39U A74G G110C A111G, which “polymerase ribozyme fitness (log ratio)” value is on record?
**A.** -5.64
